Assay results taken from publication PMC12562645, “Enhancement of Activity of Thermophilic Inorganic Pyrophosphatase Ton1914 via Site-Directed Mutagenesis” (Biomolecules, 2025).
Positions count from the first letter of the chain named. Names and notes keep the numbering of the source.

B1: Ton1914 (Thermococcus onnurineus NA1) (protein)
chain: MNPFHELEPGPEVPEVVYALIEIPKGSRNKYELDKKTGLLKLDRVLYSPFFYPVDYGIIPQTWYDDGDPFDIMVIMREPVYPLTIVEARPIGIMKMEDSGDKDWKVLAVPVEDPYFNDWKDIDDVPKAFLDEIAHFFQRYKELQGKVTTVEGWGTAEEAKREILRAIEMYKEKFGKKE
notes: pET28a-Ton1914 expressed in E. coli BL21(DE3); heat-treated (80 °C) supernatant concentrated by ultrafiltration
B2: Ton1914 (Thermococcus onnurineus NA1; D101K/E97Y) (protein)
chain: B1 chain with E97Y, D101K
notes: as for B1
B3: Ton1914 (Thermococcus onnurineus NA1; E97Y/L42F) (protein)
chain: B1 chain with L42F, E97Y
notes: as for B1
B4: Ton1914 (Thermococcus onnurineus NA1; E97Y) (protein)
chain: B1 chain with E97Y
notes: as for B1
B5: Ton1914 (Thermococcus onnurineus NA1; D101K) (protein)
chain: B1 chain with D101K
notes: as for B1
B6: Ton1914 (Thermococcus onnurineus NA1; D101K/L42F) (protein)
chain: B1 chain with L42F, D101K
notes: as for B1
B7: Ton1914 (Thermococcus onnurineus NA1; L42F) (protein)
chain: B1 chain with L42F
notes: as for B1

Each protein was assayed on O=P(O)(O)OP(=O)(O)O (assay: purified protein). Conditions: Mg2+, 90 °C, pH 9, pyrophosphate 0.05–1.0 mM, unit mM doubtful (M would fit the substrate range).
Assay type: biochemical, Thermococcus onnurineus

| Protein | Km |
| --- | --- |
| B1 | 3.03 ± 0.18 × 10^−4 mM |
| B2 | 3.48 ± 0.27 × 10^−4 mM |
| B3 | 8.49 ± 0.30 × 10^−4 mM |
| B4 | 5.94 ± 0.14 × 10^−4 mM |
| B5 | 1.03 ± 0.04 × 10^−4 mM |
| B6 | 6.34 ± 0.82 × 10^−4 mM |
| B7 | 3.18 ± 0.05 × 10^−4 mM |
